From article PMC10397247

Key:
Assay in all cases: two-hybrid library CCNG1;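 also: natural log of median RNA to DNA barcode read ratio; higher means stronger binding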
4H619-bH = molecular target: T1, 4H619-bH
T1 chain: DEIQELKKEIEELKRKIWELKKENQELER

4H3613-bH = molecular target: T2, 4H3613-bH
T2 chain: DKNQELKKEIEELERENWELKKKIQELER

4H1338-bH = molecular target: T3, 4H1338-bH
T3 chain: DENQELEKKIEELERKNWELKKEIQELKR

4H3631-bH = molecular target: T4, 4H3631-bH
T4 chain: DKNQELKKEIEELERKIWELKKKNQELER

4H3974-bH = molecular target: T5, 4H3974-bH
T5 chain: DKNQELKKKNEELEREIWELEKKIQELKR

4H1804-bH = molecular target: T6, 4H1804-bH
T6 chain: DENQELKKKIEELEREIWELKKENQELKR

4H850-bH = molecular target: T7, 4H850-bH
T7 chain: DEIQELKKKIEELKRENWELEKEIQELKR

4H1373-bH = molecular target: T8, 4H1373-bH
T8 chain: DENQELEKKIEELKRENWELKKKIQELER

P5bH1 = molecular target: T9, P5bH1
T9 chain: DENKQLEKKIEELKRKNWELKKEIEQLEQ

4H3414-bH = molecular target: T10, 4H3414-bH
T10 chain: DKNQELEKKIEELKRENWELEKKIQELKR

4H1899-bH = molecular target: T11, 4H1899-bH
T11 chain: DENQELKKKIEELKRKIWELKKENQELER

4H570-bH = molecular target: T12, 4H570-bH
T12 chain: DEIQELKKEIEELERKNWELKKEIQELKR

4H3129-bH = molecular target: T13, 4H3129-bH
T13 chain: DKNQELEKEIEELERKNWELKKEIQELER

4H3628-bH = molecular target: T14, 4H3628-bH
T14 chain: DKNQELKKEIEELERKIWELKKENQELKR

P8A-bN = molecular target: T15, P8A-bN
T15 chain: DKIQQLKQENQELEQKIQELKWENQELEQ

4H1985-bH = molecular target: T16, 4H1985-bH
T16 chain: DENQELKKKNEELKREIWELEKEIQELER

4H741-bH = molecular target: T17, 4H741-bH
T17 chain: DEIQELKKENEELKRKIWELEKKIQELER

4H1393-bH = molecular target: T18, 4H1393-bH
T18 chain: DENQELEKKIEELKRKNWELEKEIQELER

4H3638-bH = molecular target: T19, 4H3638-bH
T19 chain: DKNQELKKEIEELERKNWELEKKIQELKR

4H1348-bH = molecular target: T20, 4H1348-bH
T20 chain: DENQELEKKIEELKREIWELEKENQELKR

4H1449-bH = molecular target: T21, 4H1449-bH
T21 chain: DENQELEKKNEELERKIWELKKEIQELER

4H1222-bH = molecular target: T22, 4H1222-bH
T22 chain: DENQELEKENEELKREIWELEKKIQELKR

4H3817-bH = molecular target: T23, 4H3817-bH
T23 chain: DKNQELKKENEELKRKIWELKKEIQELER

O8-bN = molecular target: T24, O8-bN
T24 chain: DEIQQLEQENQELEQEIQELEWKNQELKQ

4H1544-bH = molecular target: T25, 4H1544-bH
T25 chain: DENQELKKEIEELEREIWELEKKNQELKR

4H906-bH = molecular target: T26, 4H906-bH
T26 chain: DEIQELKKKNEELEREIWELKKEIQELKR

4H584-bH = molecular target: T27, 4H584-bH
T27 chain: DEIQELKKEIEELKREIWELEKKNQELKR

4H3172-bH = molecular target: T28, 4H3172-bH
T28 chain: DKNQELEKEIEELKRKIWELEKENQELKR

4H1629-bH = molecular target: T29, 4H1629-bH
T29 chain: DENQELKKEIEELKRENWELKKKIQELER

4H1359-bH = molecular target: T30, 4H1359-bH
T30 chain: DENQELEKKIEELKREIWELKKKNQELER

4H1710-bH = molecular target: T31, 4H1710-bH
T31 chain: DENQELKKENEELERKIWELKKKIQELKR

4H3189-bH = molecular target: T32, 4H3189-bH
T32 chain: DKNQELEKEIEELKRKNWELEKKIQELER

4H3858-bH = molecular target: T33, 4H3858-bH
T33 chain: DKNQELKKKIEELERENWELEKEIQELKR

An interaction score (4H619-bH) of -1.4, an interaction score (4H3613-bH) of -1.34 and an interaction score (4H1338-bH) of 0.196 were found for DENQELEKENEELKREIWELEKKIQELKR [4H1222-bH] in this work. The interaction score (4H3631-bH) was 0.426, the interaction score (4H3974-bH) was 1.38 and the interaction score (4H1804-bH) was 0.345. For the same binder, the interaction score (4H850-bH) was 0.372, the interaction score (4H1373-bH) was -0.384 and the interaction score (P5bH1) was 0.361. For the same binder, the interaction score (4H3414-bH) was 0.0236, the interaction score (4H1899-bH) was 0.852 and the interaction score (4H570-bH) was 0.693. It also gave an interaction score (4H3129-bH) of 0.793, an interaction score (4H3628-bH) of 0.758 and an interaction score (P8A-bN) of 2.04. The interaction score (4H1985-bH) was 1.24, the interaction score (4H741-bH) was -2.48 and the interaction score (4H1393-bH) was -0.624. The interaction score (4H3638-bH) was -0.0664, the interaction score (4H1348-bH) was -0.0221 and the interaction score (4H1449-bH) was 1.19. It also gave an interaction score (4H1222-bH) of 0.735, an interaction score (4H3817-bH) of 1.69 and an interaction score (O8-bN) of -2.96. For the same binder, the interaction score (4H1544-bH) was -2.53, the interaction score (4H906-bH) was -0.362 and the interaction score (4H584-bH) was 0.714. It also gave an interaction score (4H3172-bH) of -0.665, an interaction score (4H1629-bH) of -0.0755 and an interaction score (4H1359-bH) of 0.083. It also gave an interaction score (4H1710-bH) of 2.16, an interaction score (4H3189-bH) of -1.2 and an interaction score (4H3858-bH) of -0.605.
